Reference: patent publication US20230111363A1 (LMMUNOMETABOLISM DEVELOPMENT, published 2023)
Residue numbers refer to the chain shown, from its start. Names and notes keep the numbering of the source. One block for each binder: values may come before it.

Legend:
[1] = target: T1, human monocarboxylate transporter 1 (MCT1) (human, UniProt P53985 1-500); assay: cell-based MCT1 binding
T1 construct: Multi-pass transmembrane transporter, endogenous on HEK WT / HEK293T cells and on primary human T and B cells in the assays; also called human MCT1; SLC16A1
T1 sequence: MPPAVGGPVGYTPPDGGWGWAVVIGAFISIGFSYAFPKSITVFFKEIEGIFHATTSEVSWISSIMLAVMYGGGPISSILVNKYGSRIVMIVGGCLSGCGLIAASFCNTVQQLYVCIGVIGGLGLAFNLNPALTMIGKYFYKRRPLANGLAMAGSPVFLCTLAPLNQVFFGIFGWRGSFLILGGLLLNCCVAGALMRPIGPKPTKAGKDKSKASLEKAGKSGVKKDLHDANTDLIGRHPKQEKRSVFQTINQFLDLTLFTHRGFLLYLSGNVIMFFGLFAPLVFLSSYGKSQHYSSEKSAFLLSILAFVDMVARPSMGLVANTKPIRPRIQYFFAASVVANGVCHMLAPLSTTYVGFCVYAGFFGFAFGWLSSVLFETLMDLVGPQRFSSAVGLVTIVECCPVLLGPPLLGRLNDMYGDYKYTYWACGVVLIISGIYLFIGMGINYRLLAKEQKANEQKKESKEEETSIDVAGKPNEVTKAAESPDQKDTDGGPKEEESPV

[2] = target: T2, human FcγRI (CD64) extracellular domain (human, UniProt P12314 16-292); assay: SPR (Biacore T100), antibody captured on Protein A, FcγR ECD as analyte, 25 C
T2 construct: extracellular domain; also called FcγRI ECD
Procedure: Unreacted sites were blocked with a 7 minute injection of ethanolamine at 10 μL/minute. […] FC1 was the reference FC, therefore no antibody was captured in FC1. […] Regeneration was performed by injecting 15 μL of 10 mM glycine, pH 1.5, at 30 μL/minute over all FCs. […] The affinity (KD) was calculated using either steady state equilibrium analysis with the Scrubber 2 Biacore Evaluation Software or a “1:1 (Langmuir) binding” model in BIA Evaluation. […] Duplicate injections of each concentration were injected over all FCs at 40 μL/minute for 60 seconds followed by a 120 second dissociation phase. […] The affinity (KD) was calculated using the steady state equilibrium analysis with the Scrubber 2 Biacore Evaluation Software.

[3] = target: T1, human monocarboxylate transporter 1 …; assay: cell-based or functional assay
[4] = target: T1, human monocarboxylate transporter 1 …; assay: cell-based or functional assay; remark: listed apart in the source
[5] = target: T1, human monocarboxylate transporter 1 …; assay: competition MSD binding assay, antibody titrated with HEK WT cells expressing MCT1, apparent KD, screening at 25 C
Procedure: The mix was incubated at 37° C. for 1-2 days. After incubation, the incubated samples were spun down for 5 min at 500×g to remove cells. A 96-well multi-array plate (Meso Scale Diagnostics, Cat. #L15XA-3) was coated at 4° C. overnight with 1 μg/mL of goat anti human FC in phosphate buffered saline (PBS). Following coating, plates were washed 3 times with 150 μL PBST (PBS with 0.05% Tween 20) and blocked with 150 μL/well of PBS 3% blocker A buffer (Cat #R93BA-1) at 25° C. for 1 hr. Plates were then washed 3 times with PBST. 50 μL of the preincubated antibody: cell dilution series was transferred to the wells and incubated at 25° C. with 700 rpm shaking for 1 hr. Plates were washed 3 times with PBST. Then 100 μL of 1 μg/mL anti-human kappa-biotin antibody (Cat. #2060-08) was added, and plates were incubated at 25° C. with 700 rpm shaking […]. Plates were washed 3 times with PBST, followed by addition of 100 μL of 1 μg/mL MSD Sulfo-tag streptavidin antibody (Meso Scale Diagnostics Cat. #R32 AD1), and plates were incubated at 25° C. with 700 rpm shaking for 1 hr. Plates were washed 3 times with PBST, 150 μL/well of 1× Read Buffer T was added to the wells and analyzed on a SECTOR® Imager 6000 (Meso Scale Diagnostics) 15 min after buffer addition. The apparent KD is determined by fitting a sigmoidal curve to the electrochemiluminescence (ECL) response vs. log (MCT1 receptor concentration) using assay development tool kit graphed with normalized ECL values.

[6] = target: T1, human monocarboxylate transporter 1 …; assay: competition MSD binding assay, antibody titrated with HEK WT cells expressing MCT1, apparent KD, 37 C, average of triplicate
Excerpt: Plates were then washed 3 times with PBST. […] Plates were washed 3 times with PBST.

[7] = target: T1, human monocarboxylate transporter 1 …; assay: cell-based or functional assay; remark: listed apart in the source
Human C1q = target: T3, Human C1q (human, UniProt P02745 23-245; P02746 28-253; P02747 29-245); assay: ELISA, antibody coated on plate, human C1q detected with anti-human C1q-HRP (results not shown)
T3 construct: Bought (MS Biomedical); also called complement component C1q
T3 sequence (P02745 23-245 limits assumed, chain 1 of 3): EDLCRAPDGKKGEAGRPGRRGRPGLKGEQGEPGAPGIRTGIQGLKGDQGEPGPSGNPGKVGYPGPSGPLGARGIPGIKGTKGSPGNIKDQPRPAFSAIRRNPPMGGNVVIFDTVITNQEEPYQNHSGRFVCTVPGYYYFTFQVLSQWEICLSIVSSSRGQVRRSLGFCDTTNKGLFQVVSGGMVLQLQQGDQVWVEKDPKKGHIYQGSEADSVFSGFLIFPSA
T3 sequence (P02746 28-253 limits assumed, chain 2 of 3): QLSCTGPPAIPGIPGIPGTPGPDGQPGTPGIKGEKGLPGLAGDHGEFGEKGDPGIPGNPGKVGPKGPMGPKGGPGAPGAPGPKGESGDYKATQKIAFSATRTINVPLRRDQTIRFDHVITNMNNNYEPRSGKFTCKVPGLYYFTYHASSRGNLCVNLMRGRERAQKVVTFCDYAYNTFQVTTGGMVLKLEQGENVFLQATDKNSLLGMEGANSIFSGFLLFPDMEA
T3 sequence (P02747 29-245 limits assumed, chain 3 of 3): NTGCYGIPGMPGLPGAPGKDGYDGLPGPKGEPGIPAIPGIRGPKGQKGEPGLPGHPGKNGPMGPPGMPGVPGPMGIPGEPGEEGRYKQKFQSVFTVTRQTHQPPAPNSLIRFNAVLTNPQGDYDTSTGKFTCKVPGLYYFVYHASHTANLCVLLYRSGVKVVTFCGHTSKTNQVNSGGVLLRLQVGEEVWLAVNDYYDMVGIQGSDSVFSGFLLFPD

T2 sequence (P12314 16-292): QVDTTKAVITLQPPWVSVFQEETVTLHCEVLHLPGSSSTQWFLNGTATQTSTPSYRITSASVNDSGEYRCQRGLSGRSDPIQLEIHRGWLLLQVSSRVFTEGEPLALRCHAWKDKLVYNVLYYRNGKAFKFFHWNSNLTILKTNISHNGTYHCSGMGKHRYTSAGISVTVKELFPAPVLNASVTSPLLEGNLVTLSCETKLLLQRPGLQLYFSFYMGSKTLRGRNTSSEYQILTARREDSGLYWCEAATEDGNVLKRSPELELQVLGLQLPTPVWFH

B1: anti-human MCT1 antibody Ab3 (antibody, human IgG1, kappa, V domains shown)
VH: EVQLVESGGGLVQPGGSLRLSCTVSGFSLTNYHLQWVRQAPGKGLEWVGFIRSSGNTEYNSEFKSRFTISRDDSKNSLYLQMNSLKTEDTAVYYCARNSWYHGTYYSPGYYVMDAWGQGTLVTVSS
VL: DIQMTQSPSTLSASVGDRVTITCKGSQNINNYLAWYQQKPGKAPKLLIYNRHNLQTGVPSRFSGSGSGTEFTLTISSLQPDDFATYYCYQYSDGYTFGGGTKVEIKR
notes: IgG1EN backbone
binding result [1]: binds

B4: INX444 IgG1EN (antibody)
heavy: QVQLKESGPGLVKPSQTLSLTCTVSGFSLTNYHLQWVRQPPGKGLEWIGFIRSSGNTEYNPSLKSRVTISRDTSKNQVSLKLSSVTAADTAVYYCARKRWVHGTWYSPGYYVMDAWGQGTLVTVSSASTKGPSVFPLAPSSKSTSGGTAALGCLVKDYFPEPVTVSWNSGALTSGVHTFPAVLQSSGLYSLSSVVTVPSSSLGTQTYICNVNHKPSNTKVDKRVEPKSCDKTHTCPPCPAPEAEGAPSVFLFPPKPKDTLMISRTPEVTCVVVDVSHEDPEVKFNWYVDGVEVHNAKTKPREEQYNSTYRVVSVLTVLHQDWLNGKEYKCKVSNKALPSSIEKTISKAKGQPREPQVYTLPPSREEMTKNQVSLTCLVKGFYPSDIAVEWESNGQPENNYKTTPPVLDSDGSFFLYSKLTVDKSRWQQGNVFSCSVMHEALHNHYTQKSLSLSPGK
light: DIQLTQSPSAMSASVGDRVTITCRASQGISNYLAWYQQKPGKAPKLLIYAASTLQSGVASRFSGRGSGTDFTLTISSLQPEDFATYYCQQSDILPYTFGQGTKVEIKRTVAAPSVFIFPPSDEQLKSGTASVVCLLNNFYPREAKVQWKVDNALQSGNSQESVTEQDSKDSTYSLSSTLTLSKADYEKHKVYACEVTHQGLSSPVTKSFNRGEC
notes: INX444 of WO19136300 converted to the IgG1EN backbone (L234A, L235E, G237A, A330S, P331S, EU numbering)
binding result [2]: no binding (tested: 200 nM)

B5: anti-human MCT1 antibody Ab1 (antibody, human IgG1, kappa, V domains shown)
VH: QVQLVQSGAEVKKPGASVKVSCTVSGFSLTNYHLQWVRQAPGQGLEWMGFIRSSGNTEYNSEFKSRVTMTRDTSTSTVYMELSSLRSEDTAVYYCARNSWYHGTYYSPGYYVMDAWGQGTLVTVSS
VL: EIVLTQSPGTLSLSPGERATLSCKGSQNINNYLAWYQQKPGQAPRLLIYNRHNLQTGIPDRFSGSGSGTDFTLTISRLEPEDFAVYYCYQYSDGYTFGGGTKVEIKR
notes: human IgG1 effector null (IgG1EN) backbone; also called humanized Framework antibody Ab1
IC50 of inhibition of MCT1 mediated transport (bromopyruvate assay, HEK293T cells) [3]: 164 nM
IC50 of inhibition of CD4 T cell proliferation [4]: 59 nM
IC50 of inhibition of CD8 T cell proliferation [4]: 42 nM
Kd [5]: 5.81 nM
Kd [6]: 1.23 nM

B8: anti-human MCT1 antibody Ab21 (antibody, human IgG1, kappa, V domains shown)
VH: B5 VH with F27R, S99R, A115P
VL: B5 VL
notes: IgG1EN backbone
IC50 of inhibition of MCT1 mediated transport (bromopyruvate assay, HEK293T cells) [3]: 50 nM
IC50 of inhibition of CD4 T cell proliferation [4]: 6 nM
IC50 of inhibition of CD8 T cell proliferation [4]: 4 nM
Kd [5]: 0.85 nM

More lines, now with the values ahead:

binding result [1]: binds
B2: anti-human MCT1 antibody Ab5 (antibody, human IgG1, kappa, V domains shown)
VH: EVQLVQSGAEVKKPGESLKISCTVSGFSLTNYHLQWVRQMPGKGLEWMGFIRSSGNTEYNSEFKSQVTISADKSISTAYLQWSSLKASDTAMYYCARNSWYHGTYYSPGYYVMDAWGQGTLVTVSS
VL: B1 VL with T10S, E70D, D81E
notes: IgG1EN backbone

binding result [1]: binds
B3: anti-human MCT1 antibody Ab4 (antibody, human IgG1, kappa, V domains shown)
VH: B1 VH with Q13K, S77T
VL: B1 VL with T10S, E70D, D81E
notes: IgG1EN backbone

binding result [1]: binds
B6: anti-human MCT1 antibody Ab2 (antibody, human IgG1, kappa, V domains shown)
VH: B5 VH
VL: B1 VL
notes: IgG1EN backbone

IC50 of inhibition of MCT1 mediated transport (bromopyruvate assay, HEK293T cells) [3]: 83 nM
IC50 of inhibition of CD4 T cell proliferation [4]: 13 nM
IC50 of inhibition of CD8 T cell proliferation [4]: 6 nM
Kd [5]: 0.64 nM
B7: anti-human MCT1 antibody Ab20 (antibody, human IgG1, kappa, V domains shown)
VH: B5 VH with F27R, S99L
VL: B5 VL
notes: IgG1EN backbone

IC50 of inhibition of MCT1 mediated transport (bromopyruvate assay, HEK293T cells) [3]: 25 nM
IC50 of inhibition of CD4 T cell proliferation [4]: 3 nM
IC50 of inhibition of CD8 T cell proliferation [4]: 3 nM
IC50 of inhibition of B cell proliferation, Average of 3 donors [7]: 2.95 nM
IC50 of inhibition of B cell proliferation, Donor1 [7]: 3.06 nM
IC50 of inhibition of B cell proliferation, Donor3 [7]: 3.38 nM
binding result (Human C1q): no binding
Kd [5]: 1.27 nM
Kd [6]: 0.59 nM
B9: anti-human MCT1 antibody Ab6 (antibody, human IgG1, kappa)
heavy: QVQLVQSGAEVKKPGASVKVSCTVSGRSLTNYHLQWVRQAPGQGLEWMGFIRSSGNTEYNSRFKSRVTMTRDTSTSTVYMELSSLRSEDTAVYYCARNRWYHGTYYSPGYYVMDAWGQGTLVTVSSASTKGPSVFPLAPSSKSTSGGTAALGCLVKDYFPEPVTVSWNSGALTSGVHTFPAVLQSSGLYSLSSVVTVPSSSLGTQTYICNVNHKPSNTKVDKRVEPKSCDKTHTCPPCPAPEAEGAPSVFLFPPKPKDTLMISRTPEVTCVVVDVSHEDPEVKFNWYVDGVEVHNAKTKPREEQYNSTYRVVSVLTVLHQDWLNGKEYKCKVSNKALPSSIEKTISKAKGQPREPQVYTLPPSREEMTKNQVSLTCLVKGFYPSDIAVEWESNGQPENNYKTTPPVLDSDGSFFLYSKLTVDKSRWQQGNVFSCSVMHEALHNHYTQKSLSLSPGK
light: EIVLTQSPGTLSLSPGERATLSCKGSQNIENYLAWYQQKPGQAPRLLIYNRHNLQTGIPDRFSGSGSGTDFTLTISRLEPEDFAVYYCYQYSDGYTFGGGTKVEIKRTVAAPSVFIFPPSDEQLKSGTASVVCLLNNFYPREAKVQWKVDNALQSGNSQESVTEQDSKDSTYSLSSTLTLSKADYEKHKVYACEVTHQGLSSPVTKSFNRGEC
notes: IgG1EN backbone
